T1: NdhD (Arabidopsis thaliana (endogenous in the …, UniProt P26288 1-500))
T1 sequence (looked up): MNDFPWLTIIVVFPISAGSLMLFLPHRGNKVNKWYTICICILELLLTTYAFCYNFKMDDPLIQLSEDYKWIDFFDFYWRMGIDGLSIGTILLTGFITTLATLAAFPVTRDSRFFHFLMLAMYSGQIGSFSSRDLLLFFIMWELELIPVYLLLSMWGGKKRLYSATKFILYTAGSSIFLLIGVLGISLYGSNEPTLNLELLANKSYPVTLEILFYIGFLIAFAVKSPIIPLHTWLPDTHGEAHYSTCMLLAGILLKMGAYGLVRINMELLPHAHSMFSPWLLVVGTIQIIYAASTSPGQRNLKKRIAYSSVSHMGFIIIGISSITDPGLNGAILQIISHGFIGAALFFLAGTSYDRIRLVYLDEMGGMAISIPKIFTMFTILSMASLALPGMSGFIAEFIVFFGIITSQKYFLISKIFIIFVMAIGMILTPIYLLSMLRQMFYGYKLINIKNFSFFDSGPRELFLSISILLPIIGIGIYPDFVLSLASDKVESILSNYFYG

T2: PnsL1 (Arabidopsis thaliana (endogenous in the …, UniProt O80634 81-238))
T2 sequence (looked up): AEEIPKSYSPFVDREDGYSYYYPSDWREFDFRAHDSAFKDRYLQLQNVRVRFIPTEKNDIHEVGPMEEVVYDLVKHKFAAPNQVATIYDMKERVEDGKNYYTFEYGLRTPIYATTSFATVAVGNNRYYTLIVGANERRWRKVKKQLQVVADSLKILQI

T3: PnsL2 (Arabidopsis thaliana (endogenous in the …, UniProt Q9XI73 69-190))
T3 sequence (looked up): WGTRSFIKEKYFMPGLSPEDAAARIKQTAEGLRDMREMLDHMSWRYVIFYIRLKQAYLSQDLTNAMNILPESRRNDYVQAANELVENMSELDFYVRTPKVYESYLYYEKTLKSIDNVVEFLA

T4: Lhca5 (Arabidopsis thaliana (endogenous in the …, UniProt Q9C639 33-256))
T4 sequence (looked up): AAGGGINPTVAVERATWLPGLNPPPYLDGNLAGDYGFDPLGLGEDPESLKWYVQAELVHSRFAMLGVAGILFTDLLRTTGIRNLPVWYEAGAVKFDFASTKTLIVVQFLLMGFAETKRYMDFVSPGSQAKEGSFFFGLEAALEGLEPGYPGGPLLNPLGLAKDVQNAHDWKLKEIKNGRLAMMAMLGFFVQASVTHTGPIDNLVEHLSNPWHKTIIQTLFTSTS

T5: PnsB1 (Arabidopsis thaliana (endogenous in the …, UniProt Q9S9N6 45-461))
T5 sequence (looked up): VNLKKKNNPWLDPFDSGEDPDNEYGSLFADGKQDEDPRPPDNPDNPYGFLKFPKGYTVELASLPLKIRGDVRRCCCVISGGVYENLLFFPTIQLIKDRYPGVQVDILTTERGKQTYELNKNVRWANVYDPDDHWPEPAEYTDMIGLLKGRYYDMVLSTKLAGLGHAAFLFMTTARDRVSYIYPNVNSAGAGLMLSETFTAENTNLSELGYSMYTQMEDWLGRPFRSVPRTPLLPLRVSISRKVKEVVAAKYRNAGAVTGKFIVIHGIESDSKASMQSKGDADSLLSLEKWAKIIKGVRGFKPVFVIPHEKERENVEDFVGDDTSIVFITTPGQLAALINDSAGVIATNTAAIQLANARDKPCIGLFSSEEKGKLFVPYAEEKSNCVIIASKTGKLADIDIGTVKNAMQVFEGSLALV

T6: Lhca6 (Arabidopsis thaliana (endogenous in the …, UniProt Q8LCQ4 34-270))
T6 sequence (looked up): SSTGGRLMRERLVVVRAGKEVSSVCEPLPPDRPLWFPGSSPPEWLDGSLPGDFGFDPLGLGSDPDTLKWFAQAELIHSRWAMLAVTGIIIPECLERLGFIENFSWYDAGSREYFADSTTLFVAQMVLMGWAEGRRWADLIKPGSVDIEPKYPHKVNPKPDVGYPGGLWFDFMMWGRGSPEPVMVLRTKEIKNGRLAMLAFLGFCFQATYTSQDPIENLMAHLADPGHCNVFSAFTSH

B1: PnsB5 (natural protein, UniProt Q9FG89 49-212, looked up)
chain: AAGLSQIEPDINEDPIGQFETNSIEMEDFKYGYYDGAHTYYEGEVQKGTFWGAIADDIAAVDQTNGFQGLISCMFLPAIALGMYFDAPGEYLFIGAALFTVVFCIIEMDKPDQPHNFEPQIYKLERGARDKLINDYNTMSIWDFNDKYGDVWDFTIEKDDIATR
B2: PnsB4 (natural protein, UniProt Q8RXS1 25-175, looked up)
chain: QNSGPNHGYWLSKNVNEKRERNLMRGSLCVRKALPHDLPLMAVMVQQIEGMRDIITEKHVWHLSDKAIKNVYMFYIMFTCWGCLYFGSAKDPFYDSEEYRGDGGDGTGYWVYETQEDIEEKARAELWREELIEEIEQKVGGLRELEEAVTK

Assays:
Assay in all cases: cryo-EM structure
[1] = molecular target: B2
[2] = molecular target: T1, NdhD
[3] = molecular target: NdhF (Arabidopsis thaliana (endogenous in the …, UniProt P56752 1-746))
[4] = molecular target: T2, PnsL1
[5] = molecular target: T3, PnsL2
[6] = molecular target: T4, Lhca5
[7] = molecular target: T5, PnsB1
[8] = molecular target: T6, Lhca6
[9] = molecular target: B1

Chain of NdhF (Arabidopsis thaliana (P56752 whole entry): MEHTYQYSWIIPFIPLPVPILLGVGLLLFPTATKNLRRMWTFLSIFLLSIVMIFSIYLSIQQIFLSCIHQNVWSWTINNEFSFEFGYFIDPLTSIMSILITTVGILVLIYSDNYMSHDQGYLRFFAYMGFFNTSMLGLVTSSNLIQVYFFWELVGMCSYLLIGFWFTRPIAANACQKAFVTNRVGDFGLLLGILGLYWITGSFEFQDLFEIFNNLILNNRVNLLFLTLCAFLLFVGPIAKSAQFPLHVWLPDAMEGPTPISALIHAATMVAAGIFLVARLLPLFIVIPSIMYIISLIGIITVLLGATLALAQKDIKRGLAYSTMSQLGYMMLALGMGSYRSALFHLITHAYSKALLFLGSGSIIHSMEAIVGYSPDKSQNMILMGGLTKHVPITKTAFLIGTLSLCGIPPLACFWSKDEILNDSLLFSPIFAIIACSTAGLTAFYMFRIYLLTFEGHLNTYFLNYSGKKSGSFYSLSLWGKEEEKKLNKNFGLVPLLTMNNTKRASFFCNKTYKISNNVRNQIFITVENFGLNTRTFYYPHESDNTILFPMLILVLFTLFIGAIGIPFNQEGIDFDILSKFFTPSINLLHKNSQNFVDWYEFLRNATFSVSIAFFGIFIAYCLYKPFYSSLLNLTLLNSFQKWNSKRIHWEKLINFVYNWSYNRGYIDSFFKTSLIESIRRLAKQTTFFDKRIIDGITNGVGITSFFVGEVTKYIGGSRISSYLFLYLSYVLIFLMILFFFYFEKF

binding result [2]	binding result [4]	binding result [5]	binding result [7]	Binder	also measured
binds	–	–	–	PnsL3 (natural protein) not shown	binding result [1]: binds; binding result [3]: binds
–	binds	binds	–	NdhC (natural protein, UniProt P56751 1-120, looked up) MFLLYEYDIFWAFLLISSAIPVLAFLISGVLSPIRKGPEKLSSYESGIEPIGDAWLQFRIRYYMFALVFVVFDVETVFLYPWAMSFDVLGVSAFIEAFIFVLILILGLVYAWRKGALEWS	–
–	binds	binds	–	NdhE (natural protein, UniProt P26289 1-101, looked up) MILEHVLVLSAYLFLIGLYGLITSRNMVRALMCLELILNAVNMNFVTFSDFFDNSQLKGEIFCIFVIAIAAAEAAIGLAIVSSIYRNRKSIRINQSTLLNK	–
–	–	–	–	Lhca1 (natural protein, UniProt Q01667 36-241, looked up) AGNVGRIRMAAHWMPGEPRPAYLDGSAPGDFGFDPLGLGEVPANLERYKESELIHCRWAMLAVPGILVPEALGYGNWVKAQEWAALPGGQATYLGNPVPWGTLPTILAIEFLAIAFVEHQRSMEKDPEKKKYPGGAFDPLGYSKDPKKLEELKVKEIKNGRLALLAFVGFCVQQSAYPGTGPLENLATHLADPWHNNIGDIVIPFN	binding result [6]: binds
binds	–	–	binds	B1	binding result [8]: binds
binds	–	–	binds	B2	binding result [9]: binds
